From the supplement of paper PMC9112550, “Optimization of the antimicrobial peptide Bac7 by deep mutational scanning” (BMC Biology, 2022)

system: Escherichia coli TOP10; test: shrunken log2 fold change of peptide-encoding DNA abundance (4.5 h post-induction vs induction); higher = less antimicrobial activity (less host growth inhibition); conditions: time post-induction: 4.5 h; library: site-saturation at positions 5, 18, 19, 20
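Note: peptides expressed intracellularly from a pBAD plasmid library in pooled LB shake-flask culture, induced with 0.3% L-arabinose, DNA abundance read by NGS, three biological replicates, DESeq2 with apeglm shrinkage.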

Row | Sequence | shrunken log2 fold change
1 | RRIRVRPPRLPRPRPRPHFWPRP | -0.158
2 | RRIRHRPPRLPRPRPRPHIKPRP | -0.83
3 | RRIRSRPPRLPRPRPRPPGGPRP | 0.724
4 | RRIRLRPPRLPRPRPRPTYMPRP | -0.469
5 | RRIRYRPPRLPRPRPRPLEVPRP | -0.335
6 | RRIRWRPPRLPRPRPRPSAWPRP | 0.319
7 | RRIRSRPPRLPRPRPRPMDLPRP | 0.0372
8 | RRIRDRPPRLPRPRPRPAYGPRP | -0.11
9 | RRIRKRPPRLPRPRPRPCKMPRP | 0.093
10 | RRIRARPPRLPRPRPRPKFIPRP | -0.135
11 | RRIRHRPPRLPRPRPRPCMKPRP | 0.0319
12 | RRIRSRPPRLPRPRPRPSKKPRP | -0.334
13 | RRIRTRPPRLPRPRPRPHSVPRP | 0.0184
14 | RRIRVRPPRLPRPRPRPGYTPRP | -0.208
15 | RRIRQRPPRLPRPRPRPFCKPRP | -0.0799
16 | RRIRTRPPRLPRPRPRPSLAPRP | 0.105
17 | RRIRSRPPRLPRPRPRPEALPRP | -0.0643
18 | RRIRGRPPRLPRPRPRPHRSPRP | 0.188
19 | RRIRWRPPRLPRPRPRPRRTPRP | 0.0983
20 | RRIRSRPPRLPRPRPRPMGSPRP | -0.205
21 | RRIRIRPPRLPRPRPRPWLSPRP | -0.238
22 | RRIRCRPPRLPRPRPRPARYPRP | -0.438
23 | RRIRMRPPRLPRPRPRPITSPRP | 0.0639
24 | RRIRGRPPRLPRPRPRPQWRPRP | 0.612
25 | RRIRMRPPRLPRPRPRPHQCPRP | -0.0247

Row | Sequence | shrunken log2 fold change
26 | RRIRNRPPRLPRPRPRPRPWPRP | 0.116
27 | RRIRKRPPRLPRPRPRPSRDPRP | 0.0856
28 | RRIRTRPPRLPRPRPRPSTRPRP | -0.296
29 | RRIRHRPPRLPRPRPRPCNNPRP | -0.188
30 | RRIRGRPPRLPRPRPRPQWAPRP | 0.498
31 | RRIRQRPPRLPRPRPRPSATPRP | 0.0854
32 | RRIRGRPPRLPRPRPRPITGPRP | 0.064
33 | RRIRRRPPRLPRPRPRPHMMPRP | 0.176
34 | RRIRNRPPRLPRPRPRPAAKPRP | -0.0209
35 | RRIRYRPPRLPRPRPRPDPGPRP | -0.124
36 | RRIRHRPPRLPRPRPRPCVDPRP | -0.184
37 | RRIRFRPPRLPRPRPRPDPDPRP | -0.113
38 | RRIRARPPRLPRPRPRPKYRPRP | -0.118
39 | RRIRFRPPRLPRPRPRPEEAPRP | 0.253
40 | RRIRWRPPRLPRPRPRPHWCPRP | -0.062
41 | RRIRLRPPRLPRPRPRPCKGPRP | -0.0757
42 | RRIRIRPPRLPRPRPRPPAIPRP | 0.00229
43 | RRIRRRPPRLPRPRPRPPSLPRP | 0.522
44 | RRIRERPPRLPRPRPRPCVQPRP | -0.0665
45 | RRIRGRPPRLPRPRPRPVDVPRP | 0.447
46 | RRIRLRPPRLPRPRPRPTKKPRP | 0.12
47 | RRIRARPPRLPRPRPRPKMGPRP | 0.297
48 | RRIRFRPPRLPRPRPRPIHNPRP | -0.745
49 | RRIRARPPRLPRPRPRPRYIPRP | -0.0261
50 | RRIRWRPPRLPRPRPRPMTWPRP | 2.14

Row | Sequence | shrunken log2 fold change
51 | RRIRLRPPRLPRPRPRPCPFPRP | -0.353
52 | RRIRGRPPRLPRPRPRPCIRPRP | 0.174
53 | RRIRTRPPRLPRPRPRPVIDPRP | -0.0797
54 | RRIRSRPPRLPRPRPRPSVHPRP | -0.352
55 | RRIRVRPPRLPRPRPRPVIMPRP | -0.227
56 | RRIRPRPPRLPRPRPRPDMNPRP | -0.268
57 | RRIRRRPPRLPRPRPRPGEAPRP | 0.752
58 | RRIRLRPPRLPRPRPRPYEGPRP | 0.0285
59 | RRIRYRPPRLPRPRPRPKVAPRP | -0.013
60 | RRIRIRPPRLPRPRPRPRQSPRP | 0.065
61 | RRIRPRPPRLPRPRPRPTLRPRP | 0.449
62 | RRIRYRPPRLPRPRPRPNPIPRP | -0.711
63 | RRIRFRPPRLPRPRPRPSPCPRP | -0.508
64 | RRIRERPPRLPRPRPRPQHHPRP | -0.771
65 | RRIRTRPPRLPRPRPRPEREPRP | -0.00458
66 | RRIRVRPPRLPRPRPRPWWSPRP | 0.0392
67 | RRIRFRPPRLPRPRPRPYNFPRP | -0.458
68 | RRIRVRPPRLPRPRPRPDTLPRP | -0.712
69 | RRIRERPPRLPRPRPRPVGEPRP | -0.0892
70 | RRIRSRPPRLPRPRPRPMWDPRP | 0.293
71 | RRIRSRPPRLPRPRPRPAANPRP | 0.403
72 | RRIRWRPPRLPRPRPRPVWHPRP | 0.387
73 | RRIRRRPPRLPRPRPRPGQGPRP | 0.278
74 | RRIRDRPPRLPRPRPRPTYTPRP | 0.319
75 | RRIRQRPPRLPRPRPRPWRSPRP | 0.0241

Row | Sequence | shrunken log2 fold change
76 | RRIRWRPPRLPRPRPRPMQMPRP | 1.53
77 | RRIRSRPPRLPRPRPRPLYMPRP | -1
78 | RRIRSRPPRLPRPRPRPTEVPRP | -0.125
79 | RRIRRRPPRLPRPRPRPHYTPRP | -0.313
80 | RRIRCRPPRLPRPRPRPGHVPRP | 0.0304
81 | RRIRTRPPRLPRPRPRPWLYPRP | -0.161
82 | RRIRYRPPRLPRPRPRPSEIPRP | -0.271
83 | RRIRVRPPRLPRPRPRPADRPRP | 0.194
84 | RRIRTRPPRLPRPRPRPGGGPRP | 0.759
85 | RRIRHRPPRLPRPRPRPNFGPRP | 0.00709
86 | RRIRGRPPRLPRPRPRPDQRPRP | 0.55
87 | RRIRERPPRLPRPRPRPQKDPRP | -0.298
88 | RRIRNRPPRLPRPRPRPQTVPRP | -0.0578
89 | RRIRMRPPRLPRPRPRPYMTPRP | -0.178
90 | RRIRIRPPRLPRPRPRPAPPPRP | 0.398
91 | RRIRTRPPRLPRPRPRPQGIPRP | 0.0112
92 | RRIRSRPPRLPRPRPRPKCNPRP | -0.174
93 | RRIRQRPPRLPRPRPRPRSWPRP | 0.681
94 | RRIRMRPPRLPRPRPRPLHLPRP | -0.254
95 | RRIRNRPPRLPRPRPRPGVDPRP | -0.154
96 | RRIRGRPPRLPRPRPRPWQEPRP | -0.0457
97 | RRIRFRPPRLPRPRPRPFEQPRP | -0.311
98 | RRIRMRPPRLPRPRPRPKTKPRP | 0.557
99 | RRIRVRPPRLPRPRPRPYEAPRP | -0.157
100 | RRIRCRPPRLPRPRPRPQMSPRP | -0.201

Row | Sequence | shrunken log2 fold change
101 | RRIRVRPPRLPRPRPRPHTKPRP | 0.11
102 | RRIRTRPPRLPRPRPRPACMPRP | 0.0444
103 | RRIRQRPPRLPRPRPRPECCPRP | 0.267
104 | RRIRARPPRLPRPRPRPSQQPRP | -0.0191
105 | RRIRQRPPRLPRPRPRPLRLPRP | 0.655
106 | RRIRWRPPRLPRPRPRPWQHPRP | -0.0883
107 | RRIRNRPPRLPRPRPRPAQIPRP | 0.603
108 | RRIRKRPPRLPRPRPRPYRCPRP | -0.12
109 | RRIRTRPPRLPRPRPRPMPEPRP | 0.0253
110 | RRIRHRPPRLPRPRPRPRGFPRP | 0.0657
111 | RRIRRRPPRLPRPRPRPVSLPRP | -0.15
112 | RRIRCRPPRLPRPRPRPEKSPRP | 0.0445
113 | RRIRQRPPRLPRPRPRPMQTPRP | -0.0319
114 | RRIRIRPPRLPRPRPRPFEQPRP | -0.0348
115 | RRIRFRPPRLPRPRPRPMGSPRP | -0.22
116 | RRIRGRPPRLPRPRPRPLQEPRP | 1.56
117 | RRIRYRPPRLPRPRPRPLMWPRP | -0.0343
118 | RRIRYRPPRLPRPRPRPVSYPRP | -0.00297
119 | RRIRHRPPRLPRPRPRPVQSPRP | 0.0377
120 | RRIRGRPPRLPRPRPRPITDPRP | 0.0223
121 | RRIRYRPPRLPRPRPRPMFKPRP | -0.825
122 | RRIRMRPPRLPRPRPRPRGIPRP | 0.0677
123 | RRIRERPPRLPRPRPRPRCKPRP | -0.0657
124 | RRIRMRPPRLPRPRPRPYFMPRP | -0.898
125 | RRIRWRPPRLPRPRPRPEPHPRP | 0.65

Row | Sequence | shrunken log2 fold change
126 | RRIRQRPPRLPRPRPRPQYEPRP | -0.349
127 | RRIRNRPPRLPRPRPRPVQQPRP | 0.171
128 | RRIRYRPPRLPRPRPRPHWWPRP | -0.0763
129 | RRIRARPPRLPRPRPRPGWIPRP | 0.161
130 | RRIRARPPRLPRPRPRPWNNPRP | -1.02
131 | RRIRERPPRLPRPRPRPEHDPRP | -0.0107
132 | RRIRARPPRLPRPRPRPCPGPRP | -0.258
133 | RRIRPRPPRLPRPRPRPSDWPRP | 0.248
134 | RRIRYRPPRLPRPRPRPKCPPRP | 0.137
135 | RRIRSRPPRLPRPRPRPYALPRP | -0.613
136 | RRIRKRPPRLPRPRPRPRHYPRP | -0.0867
137 | RRIRMRPPRLPRPRPRPTNGPRP | -0.0328
138 | RRIRDRPPRLPRPRPRPPTEPRP | 0.274
139 | RRIRIRPPRLPRPRPRPTDDPRP | -0.217
140 | RRIRQRPPRLPRPRPRPFPMPRP | 0.155
141 | RRIRPRPPRLPRPRPRPPQVPRP | 0.368
142 | RRIRVRPPRLPRPRPRPTEEPRP | 0.0849
143 | RRIRARPPRLPRPRPRPCDQPRP | -0.00754
144 | RRIRHRPPRLPRPRPRPVKKPRP | 0.0327
145 | RRIRTRPPRLPRPRPRPHFHPRP | -0.589
146 | RRIRTRPPRLPRPRPRPPLHPRP | 0.0532
147 | RRIRKRPPRLPRPRPRPTPSPRP | 0.921
148 | RRIRLRPPRLPRPRPRPLCIPRP | -0.569
149 | RRIRMRPPRLPRPRPRPDDHPRP | 0.00288
150 | RRIRERPPRLPRPRPRPMHYPRP | -0.0285
